Test results as given in publication PMC5399792.

Tests used:
[1] = target: T1, influenza B polymerase (PA-PB1-PB2 heterotrimer, FluB) (Influenza B virus, UniProt Q5V8Z9;Q5V8Y6;Q5V8X3 1-726;1-752;1-770); test: fluorescence anisotropy; 1:1 stoichiometry; settings: protein: recombinant, copies: 1;1;1
[2] = target: T1, influenza B polymerase (PA-PB1-PB2 …); test: FRET / fluorescence titration; settings: protein: recombinant; copies: 1;1;1; label: 3'-FAM-Ex-5 on v5'; 5'-Cy3 on v3' (implied by FRET)
[3] = target: T1, influenza B polymerase (PA-PB1-PB2 …); test: X-ray crystallography (3.8 A); settings: protein: recombinant, copies: 1;1;1
[4] = label: FAM-Ex-5, 5' hook hairpin on polymerase

B1: v3' 1-18 (ssRNA)
RNA: UAUACCUCUGCUUCUGCU
- Kd ([1]; label: 5'-FAM-Ex-5, single strand): < 10 nM

B2: v5' 1-18 (ssRNA)
RNA: AGUAGUAACAAGAGGGUA
- Kd [1, 4]: < 10 nM

B3: c3' 1-18 (ssRNA)
RNA: UACCCUCUUGUUACUACU
- Kd ([1]; label: FAM-Ex-5, single strand): < 10 nM

B4: c5' 1-18 (ssRNA)
RNA: AGCAGAAGCAGAGGUAUA
- Kd [1, 4]: < 10 nM

B5: v5' 1-10 (ssRNA)
RNA: AGUAGUAACA
- Kd ([1]; label: 3'-FAM-Ex-5, 5' hook hairpin on polymerase): < 10 nM

B6: v5' 1-10 + v3' 1-18 (mixed)
RNA 1: AGUAGUAACA
RNA 2: UAUACCUCUGCUUCUGCU
- binding result [2]: binds

B7: vRNA promoter v5' 1-14 + v3' 1-18 (crystal) (structured_RNA)
RNA 1: AGUAGUAACAAGAG
RNA 2: UAUACCUCUGCUUCUGCU
modifications: 5'-monophosphate on v5'
- binding result [3]: binds

B8: capped 13-mer primer (ssRNA)
RNA: AAUCUAUAAUAGC
modifications: 5'-m7Gppp cap
- binding result ([3]; single strand): binds
